The values below come from patent publication US20260317446 (published 2026).

One test addresses calmodulin. Briefly: other dot blot.
The next test has as its target YKL-40 A142 (human). Briefly: BLI. In general terms: BLI is a label-free optical method that tracks binding on a fibre tip over time.
The target of the next test is YKL-40 A93 (human). In words: BLI.
The next test concerns the target YKL-40 A175 (human). In words: BLI.
A further test deals with YKL-40 A148 (human). Briefly: BLI.
In the next test the target is YKL-40 A250 (human). Briefly: BLI.
Another test deals with YKL-40 A289 (human). Briefly: BLI.
A further test has as its target YKL-40 A42 (human). Briefly: BLI.
The target of the next test is YKL-40 A135 (human). Briefly: BLI.
In a further test the target is YKL-40 A92 (human). Briefly: BLI.
The target of the next test is YKL-40 A172 (human). In words: BLI.
Sequence of YKL-40 A172 (human) (chain, as listed by the source): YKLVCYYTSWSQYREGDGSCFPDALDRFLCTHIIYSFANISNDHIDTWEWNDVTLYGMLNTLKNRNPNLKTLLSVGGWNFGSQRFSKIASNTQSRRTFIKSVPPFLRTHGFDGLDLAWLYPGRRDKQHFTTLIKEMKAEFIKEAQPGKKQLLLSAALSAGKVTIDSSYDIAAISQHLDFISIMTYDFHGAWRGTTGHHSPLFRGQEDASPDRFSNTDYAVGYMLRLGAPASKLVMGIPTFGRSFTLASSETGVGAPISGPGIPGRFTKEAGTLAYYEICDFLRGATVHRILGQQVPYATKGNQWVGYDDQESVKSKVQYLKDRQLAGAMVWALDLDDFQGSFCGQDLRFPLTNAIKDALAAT
Another test concerns the target YKL-40 A104 (human). In words: BLI.
For the next test, the target named is YKL-40 A194 (human). Briefly: BLI.
Another test deals with YKL-40 A149 (human). Briefly: BLI.
For a further test, the target named is YKL-40 A192 (human). In words: BLI.
Sequence of YKL-40 A192 (human) (chain, as listed by the source): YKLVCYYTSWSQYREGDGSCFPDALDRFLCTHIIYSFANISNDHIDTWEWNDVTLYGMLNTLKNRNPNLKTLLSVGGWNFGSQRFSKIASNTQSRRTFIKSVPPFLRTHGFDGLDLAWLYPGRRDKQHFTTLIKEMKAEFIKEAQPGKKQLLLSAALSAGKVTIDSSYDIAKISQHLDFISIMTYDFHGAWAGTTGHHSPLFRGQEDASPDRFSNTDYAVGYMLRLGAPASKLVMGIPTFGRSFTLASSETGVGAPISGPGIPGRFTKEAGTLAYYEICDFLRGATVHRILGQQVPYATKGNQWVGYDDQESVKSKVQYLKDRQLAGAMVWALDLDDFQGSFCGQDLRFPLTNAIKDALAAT
The target of another test is human YKL-40 WT (human). Briefly: BLI.
Sequence of human YKL-40 WT (human) (chain, as listed by the source): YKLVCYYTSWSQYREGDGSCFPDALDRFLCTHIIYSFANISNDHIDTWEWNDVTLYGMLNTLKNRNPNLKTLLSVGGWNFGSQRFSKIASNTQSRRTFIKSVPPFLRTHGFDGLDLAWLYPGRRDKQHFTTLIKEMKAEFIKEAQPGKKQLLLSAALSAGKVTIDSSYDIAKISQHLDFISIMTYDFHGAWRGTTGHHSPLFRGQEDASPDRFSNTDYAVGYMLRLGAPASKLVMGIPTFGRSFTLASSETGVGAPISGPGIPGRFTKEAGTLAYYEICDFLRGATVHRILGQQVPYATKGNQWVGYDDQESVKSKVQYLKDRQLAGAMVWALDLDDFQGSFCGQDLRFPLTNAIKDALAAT
For another test, the target named is YKL-40 R301 (human). In words: BLI.
Sequence of YKL-40 R301 (human) (chain, as listed by the source): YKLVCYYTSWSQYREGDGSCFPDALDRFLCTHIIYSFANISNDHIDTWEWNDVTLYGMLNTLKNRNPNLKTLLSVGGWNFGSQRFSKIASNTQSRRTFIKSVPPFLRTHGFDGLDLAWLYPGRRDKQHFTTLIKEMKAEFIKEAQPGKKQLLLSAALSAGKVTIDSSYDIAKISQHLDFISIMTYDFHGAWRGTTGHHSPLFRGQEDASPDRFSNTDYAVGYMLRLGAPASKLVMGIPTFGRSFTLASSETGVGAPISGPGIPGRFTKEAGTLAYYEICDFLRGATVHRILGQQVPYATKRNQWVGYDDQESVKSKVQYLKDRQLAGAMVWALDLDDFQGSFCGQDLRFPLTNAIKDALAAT
For the next test, the target named is YKL-40 A96 (human). Briefly: BLI.
The next test concerns the target YKL-40 A302 (human). Briefly: BLI.
For the next test, the target named is YKL-40 R284 (human). Briefly: BLI.
Sequence of YKL-40 R284 (human) (chain, as listed by the source): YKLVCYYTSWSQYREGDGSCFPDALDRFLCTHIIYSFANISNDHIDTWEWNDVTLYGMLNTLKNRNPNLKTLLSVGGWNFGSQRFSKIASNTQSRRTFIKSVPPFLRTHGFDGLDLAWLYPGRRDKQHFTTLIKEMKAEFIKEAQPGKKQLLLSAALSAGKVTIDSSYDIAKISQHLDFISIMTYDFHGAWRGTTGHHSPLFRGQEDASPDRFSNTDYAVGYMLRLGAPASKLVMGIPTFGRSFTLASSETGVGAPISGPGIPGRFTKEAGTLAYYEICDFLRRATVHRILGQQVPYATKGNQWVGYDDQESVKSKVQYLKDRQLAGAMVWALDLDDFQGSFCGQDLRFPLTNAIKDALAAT
Another test deals with YKL-40 A146 (human). Briefly: BLI.
For a further test, the target named is YKL-40 A256 (human). Briefly: BLI.
Sequence of YKL-40 A256 (human) (chain, as listed by the source): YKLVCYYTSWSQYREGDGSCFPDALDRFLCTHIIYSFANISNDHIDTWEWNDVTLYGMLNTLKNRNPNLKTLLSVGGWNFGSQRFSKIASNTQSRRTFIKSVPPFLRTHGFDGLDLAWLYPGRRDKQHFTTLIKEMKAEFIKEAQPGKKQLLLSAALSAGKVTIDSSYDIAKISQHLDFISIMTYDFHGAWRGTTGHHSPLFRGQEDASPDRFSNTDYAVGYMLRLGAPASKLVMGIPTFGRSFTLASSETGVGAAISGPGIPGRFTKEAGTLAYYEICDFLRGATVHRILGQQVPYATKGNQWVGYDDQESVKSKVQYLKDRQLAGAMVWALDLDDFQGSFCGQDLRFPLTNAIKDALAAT
In another test the target is YKL-40 A286 (human). Briefly: BLI.
The next test addresses YKL-40 A283 (human). Briefly: BLI.
For a further test, the target named is YKL-40 A141 (human). In words: BLI.
Another test has as its target YKL-40 A300 (human). In words: BLI.
Another test addresses YKL-40 A134 (human). Briefly: BLI.
The next test concerns the target YKL-40 A191 (human). Briefly: BLI.
For a further test, the target named is YKL-40 A100 (human). In words: BLI.
Another test concerns the target YKL-40 A287 (human). Briefly: BLI.
Another test deals with YKL-40 A145 (human). Briefly: BLI.
A further test concerns the target YKL-40 A107 (human). In words: BLI.
The target in the next test is YKL-40 A288 (human). Briefly: BLI.
The next test addresses YKL-40 A108 (human). Briefly: BLI.
For the next test, the target named is YKL-40 A44 (human). In words: BLI.
Another test deals with YKL-40 A249 (human). In words: BLI.
Sequence of YKL-40 A249 (human) (chain, as listed by the source): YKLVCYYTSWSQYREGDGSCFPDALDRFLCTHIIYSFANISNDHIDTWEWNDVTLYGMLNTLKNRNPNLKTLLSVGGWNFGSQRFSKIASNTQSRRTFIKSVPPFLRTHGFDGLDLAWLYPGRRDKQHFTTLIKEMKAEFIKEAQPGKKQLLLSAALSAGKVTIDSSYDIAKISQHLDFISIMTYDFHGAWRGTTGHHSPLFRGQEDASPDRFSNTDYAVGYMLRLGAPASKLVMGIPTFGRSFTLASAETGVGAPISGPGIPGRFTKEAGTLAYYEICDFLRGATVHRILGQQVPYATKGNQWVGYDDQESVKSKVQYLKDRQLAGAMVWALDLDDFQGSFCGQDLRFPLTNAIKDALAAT

Sequence of YKL-40 A142 (human) (chain, as listed by the source): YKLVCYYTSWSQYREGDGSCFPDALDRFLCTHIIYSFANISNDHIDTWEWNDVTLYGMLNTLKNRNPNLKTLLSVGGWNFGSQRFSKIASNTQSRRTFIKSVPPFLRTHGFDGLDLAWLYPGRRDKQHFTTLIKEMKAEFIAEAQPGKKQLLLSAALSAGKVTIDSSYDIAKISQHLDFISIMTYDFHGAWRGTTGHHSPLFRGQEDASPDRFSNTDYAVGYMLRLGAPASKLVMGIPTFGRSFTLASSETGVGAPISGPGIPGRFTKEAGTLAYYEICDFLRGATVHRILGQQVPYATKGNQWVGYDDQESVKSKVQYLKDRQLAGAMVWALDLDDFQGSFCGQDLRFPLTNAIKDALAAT
Sequence of YKL-40 A148 (human) (chain, as listed by the source): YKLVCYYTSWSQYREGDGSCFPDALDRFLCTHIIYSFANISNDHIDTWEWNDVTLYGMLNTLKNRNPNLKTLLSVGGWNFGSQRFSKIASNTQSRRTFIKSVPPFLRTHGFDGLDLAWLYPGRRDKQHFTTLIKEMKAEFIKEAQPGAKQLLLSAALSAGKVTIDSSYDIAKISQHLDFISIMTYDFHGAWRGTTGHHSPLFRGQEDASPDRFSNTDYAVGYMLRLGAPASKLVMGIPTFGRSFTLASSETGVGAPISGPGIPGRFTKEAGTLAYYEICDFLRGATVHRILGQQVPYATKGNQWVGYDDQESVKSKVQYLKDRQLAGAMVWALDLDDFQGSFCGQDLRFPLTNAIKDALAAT
Sequence of YKL-40 A42 (human) (chain, as listed by the source): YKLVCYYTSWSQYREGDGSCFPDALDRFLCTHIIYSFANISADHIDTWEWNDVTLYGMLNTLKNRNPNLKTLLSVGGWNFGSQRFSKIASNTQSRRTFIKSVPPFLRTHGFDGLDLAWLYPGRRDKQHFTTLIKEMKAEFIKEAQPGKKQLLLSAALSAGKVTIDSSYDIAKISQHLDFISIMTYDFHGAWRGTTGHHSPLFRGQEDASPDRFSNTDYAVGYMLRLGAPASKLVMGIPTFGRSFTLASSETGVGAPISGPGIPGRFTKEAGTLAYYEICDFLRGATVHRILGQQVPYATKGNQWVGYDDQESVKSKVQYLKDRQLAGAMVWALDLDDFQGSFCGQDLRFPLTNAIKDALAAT
Sequence of YKL-40 A300 (human) (chain, as listed by the source): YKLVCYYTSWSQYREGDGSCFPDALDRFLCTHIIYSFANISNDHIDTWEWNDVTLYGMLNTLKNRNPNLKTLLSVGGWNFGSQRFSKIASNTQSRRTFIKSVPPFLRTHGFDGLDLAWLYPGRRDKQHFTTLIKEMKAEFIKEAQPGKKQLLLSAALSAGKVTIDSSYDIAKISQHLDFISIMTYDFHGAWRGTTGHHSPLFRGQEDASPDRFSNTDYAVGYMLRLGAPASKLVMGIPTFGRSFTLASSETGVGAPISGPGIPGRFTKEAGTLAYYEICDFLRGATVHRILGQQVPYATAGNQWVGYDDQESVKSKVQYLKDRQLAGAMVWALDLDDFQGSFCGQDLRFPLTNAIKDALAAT
Sequence of YKL-40 A302 (human) (chain, as listed by the source): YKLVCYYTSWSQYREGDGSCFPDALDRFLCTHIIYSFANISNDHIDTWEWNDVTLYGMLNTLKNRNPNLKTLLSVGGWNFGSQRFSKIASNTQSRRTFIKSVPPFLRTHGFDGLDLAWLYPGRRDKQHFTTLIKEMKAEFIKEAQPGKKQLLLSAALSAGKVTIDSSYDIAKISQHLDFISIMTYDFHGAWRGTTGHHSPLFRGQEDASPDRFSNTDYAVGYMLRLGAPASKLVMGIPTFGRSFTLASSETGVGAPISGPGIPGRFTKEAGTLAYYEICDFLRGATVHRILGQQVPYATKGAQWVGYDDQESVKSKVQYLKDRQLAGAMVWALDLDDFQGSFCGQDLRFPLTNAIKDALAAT
Sequence of YKL-40 A134 (human) (chain, as listed by the source): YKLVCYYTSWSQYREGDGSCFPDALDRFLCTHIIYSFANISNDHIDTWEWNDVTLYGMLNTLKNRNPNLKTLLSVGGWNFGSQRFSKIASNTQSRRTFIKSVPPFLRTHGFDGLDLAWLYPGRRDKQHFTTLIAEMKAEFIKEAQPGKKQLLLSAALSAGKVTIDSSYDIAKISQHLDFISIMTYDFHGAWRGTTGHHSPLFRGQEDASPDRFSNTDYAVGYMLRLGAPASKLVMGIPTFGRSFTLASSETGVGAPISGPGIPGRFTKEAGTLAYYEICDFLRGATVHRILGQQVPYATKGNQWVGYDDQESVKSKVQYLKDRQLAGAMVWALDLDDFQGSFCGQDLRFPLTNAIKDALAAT

B1: B3-hFc (antibody)
chain 1: MAEVQLLESGGGLVQPGGSLRLSCAASGFRDSDEDMGWVRQAPGKGLEWVSSISAPGGSTYYADSVKGRFTISRDNSKNTLYLQMNSLRAEDTAVYYCASHYNYGHWFDYWGQGTLVTVSSAA
chain 2: VECPPCPAPPVAGPSVFLFPPKPKDTLMISRTPEVTCVVVDVSHEDPEVQFNWYVDGMEVHNAKTKPREEQFNSTFRVVSVLTVVHQDWLNGKEYKCKVSNKGLPAPIEKTISKTKGQPREPQVYTLPPSREEMTKNQVSLTCLVKGFYPSDIAVEWESNGQPENNYKTTPPMLDSDGSFFLYSKLTVDKSRWQQGNVFSCSVMHEALHNHYTQKSLSLSPGK
B1: the binding result with calmodulin is recorded as “no binding”.

B2: H7 (antibody, V domains shown)
VH: EVQLQQSGAELVKPGASVKLSCTASGFNIKDTYMHWVKQRPEQGLEWIGRIDPANGNTIYASKFQGKATITRDTSSNTAYMQLSSLTSGDTAVYYCTRGVYYYGGSFYAMDYWGQGTSVTVSS
VL: DIQMTQSPASLSASVGETVTITCGASENIYGALNWYQRKQGKSPQLLIYGATTLADGMSSRFSGSGSGRQYSLKISSLHPDDVATYYCQNVLTTPWTFGGGTKLEIKT
The Kd is the concentration at which binding is half-saturated. Take B2: the Kd in the test with YKL-40 A142 was found to be 0.79 nM; with YKL-40 A93 it was 0.777 nM; with YKL-40 A175, 0.684 nM; in the test with YKL-40 A148 it was 0.817 nM; with YKL-40 A250, 120 nM; in the test with YKL-40 A289, 0.693 nM. Also, the Kd in the test with YKL-40 A42 amounted to 2540 nM; with YKL-40 A135, 0.755 nM; with YKL-40 A92, 33.9 nM; with YKL-40 A172, 0.655 nM; with YKL-40 A104, 0.423 nM; in the test with YKL-40 A194, 20600 nM. Besides, the Kd with YKL-40 A149 stood at 0.84 nM; with YKL-40 A192, 0.699 nM; with human YKL-40 WT it was 1180 nM; with YKL-40 R301 it was 0.753 nM; with YKL-40 A96 it was 0.558 nM; in the test with YKL-40 A302 it was 0.673 nM. In addition, the Kd amounted to 52000 nM in the test with YKL-40 R284; 0.773 nM with YKL-40 A146; 104 nM in the test with YKL-40 A256; 0.472 nM with YKL-40 A286; 1.07 nM in the test with YKL-40 A283; 0.638 nM with YKL-40 A141. In addition, the Kd in the test with YKL-40 A300 came out at 7260 nM; with YKL-40 A134 it was 0.516 nM; in the test with YKL-40 A191, 4800 nM; with YKL-40 A100, 0.906 nM; in the test with YKL-40 A287 it was 164 nM; with YKL-40 A145, 0.465 nM. Moreover, the Kd was determined as 0.611 nM with YKL-40 A107; 0.649 nM with YKL-40 A288; 0.529 nM with YKL-40 A108; 0.439 nM with YKL-40 A44; 2480 nM with YKL-40 A249.
